Source: patent US20230302100
“And” between values parts separate entries of the source, which are not always exact repeats. Equal entries are not always repeated.

Target: IVIg (Octagam)

B1: pCART229 (protein)
chain: MDDYQRNATEAYAKEVPHQITSVWTKGVTPPEQFTQGEDVIHAPYLAHQGWYDITKAFDGKDNLLCGAATAGNMLHWWFDQNKTEIEAYLSKHPEKQKIIFRNQELFDLKAAIDTKDSQTNSQLFNYFRDKAFPNLSARQLGVMPDLVLDMFINGYYLNVFKTQSTDVNRPYQDKDKRGGIFDAVFTRGNQTTLLTARHDLKNKGLNDISTIIKQELTEGRALALSHTYANVSISHVINLWGADFNAEGNLEAIYVTDSDANASIGMKKYFVGINAHGHVAISAKKIEGENIGAQVLGLFTLSSGKDIWQKLSGGGHHHHHH
Conc. of enzyme for 1st IgG heavy chain cleavage (IgG to scIgG), SDS-PAGE: 1900 ng/mL
Conc. of enzyme for 2nd IgG heavy chain cleavage (scIgG to F(ab')2), SDS-PAGE: 7500 ng/mL

B2: pCART206 (protein)
chain: MDDYQRNATEAYAKEVPHQITSVWTKGVTPPEQFTQGEDVIHAPYLAHQGWYDITKAFDGKDNLLCGAATAGNMLHWWFDQNKTEIEAYLSKHPEKQKIIINNQELFDLKAAIDTKDSQTNSQLFNYFRDKAFPNLSARQLGVMPDLVLDMFINGYYLNVFKTQSTDVNRPYQDKDKRGGIFDAVFTRGDQTTLLTARHDLKNKGLNDISTIIKQELTEGRALALSHTYANVSISHVINLWGADFNAEGNLEAIYVTDSDANASIGMKKYFVGINAHGHVAISAKKIEGENIGAQVLGLFTLSSGKDIWQKLSGGGHHHHHH
IVIg cleavage in the presence of anti-IdeS neutralizing antibodies, SDS-PAGE titration: A similar result was obtained for pCART206 (data not shown)

B3: pCART208 (protein)
chain: MDDYQRNATEAYAKEVPHQITSVWTKGVTPPEQFTQGEDVIHAPYLAHQGWYDITKAFDGKDNLLCGAATAGNMLHWWFDQNKTEIEAYLSKHPEKQKIIIRNQELFDLKAAIDTKDSQTNSQLFNYFRDKAFPNLSARQLGVMPDLVLDMFINGYYLNVFKTQSTDVNRPYQDKDKRGGIFDAVFTRGDQTTLLTARHDLKNKGLNDISTIIKQELTEGRALALSHTYANVSISHVINLWGADFNAEGNLEAIYVTDSDANASIGMKKYFVGINAHGHVAISAKKIEGENIGAQVLGLFTLSSGKDIWQKLSGGGHHHHHH
IVIg cleavage of the 1st heavy chain, SDS-PAGE titration: pCART207, pCART208 and pCART210 all show increased efficacy compared to IdeS (BX1001865) in the cleavage of the 1st IgG heavy chain (lane 6)
IVIg cleavage of the 1st heavy chain, SDS-PAGE titration: fold efficacy over IdeS: In the case of pCART208 this is approximately a 4 fold increase in cleavage efficacy of the 1st heavy chain
IVIg cleavage of the 2nd heavy chain, SDS-PAGE titration: enzyme concentration giving a dominating F(ab')2 band: pCART208 shows an improved cleavage efficacy, resulting in a dominating F(ab')2 band (arrow 3) at 1.9 ng/ml (lane 5), whereas IdeS (BX1001865) has only generated scIgG (arrow 2) at the same concentration

B4: pCART210 (protein)
chain: MDDYQRNATEAYAKEVPHQITSVWTKGVTPPEQFTQGEDVIHAPYLANQGWYDITKAFDGKDNLLCGAATAGNMLHWWFDQNKTEIEAYLSKHPEKQKIIFRNQELFDLKEAIRTKDSQTNSQLFEYFRDKAFPYLSARQLGVMPDLVLDMFINGYYLNVFKTQSTDVKRPYQDKDKRGGIFDAVFTRGNQTTLLTARHDLKNKGLNDISTIIKEELTKGRALALSHTYANVSISHVINLWGADFNAEGNLEAIYVTDSDANASIGMKKYFVGINKHGHVAISAKKIEGENIGAQVLGLFTLSSGKDIWQKLNGGGHHHHHH
IVIg cleavage of the 1st heavy chain, SDS-PAGE titration: pCART207, pCART208 and pCART210 all show increased efficacy compared to IdeS (BX1001865) in the cleavage of the 1st IgG heavy chain (lane 6)

B5: pCART203 (protein)
chain: MDDYQRNATEAYAKEVPHQITSVWTKGVTPPEQFTQGEDVIHAPYLAHQGWYDITKAFDGKDNLLCGAATAGNMLHWWFDQNKTEIEAYLSKHPEKQKIIFNNQELFDLKAAIDTKDSQTNSQLFNYFRDKAFPNLSARQLGVMPDLVLDMFINGYYLNVFKTQSTDVNRPYQDKDKRGGIFDAVFTRGDQTTLLTARHDLKNKGLNDISTIIKQELTEGRALALSHTYANVSISHVINLWGADFNAEGNLEAIYVTDSDANASIGMKKYFVGINAHGHVAISAKKIEGENIGAQVLGLFTLSSGKDIWQKLSGGGHHHHHH
IVIg cleavage, SDS-PAGE titration: pCART203 shows a capacity comparable to IdeS (BX1001865 and pCART124) at the 2nd cleavage site (lane 2, 3 and 4) and a higher cleavage efficacy than both IdeS and IdeZ (pCART144) at the 1st cleavage site (lane 7)
IVIg cleavage, SDS-PAGE titration: enzyme concentration at which cleavage is seen: Enzyme pCART203 demonstrates IgG cleavage at 0.5 ng/ml (lane 7)
IVIg cleavage, SDS-PAGE titration: enzyme concentration giving an intense scIgG band: Concentrations of 0.94 ng/ml (lane 6) for pCART202, pCART203 and pCART204 result in an intense band of scIgG (arrow 2), with most of the IgG single cleaved
IVIg cleavage, SDS-PAGE titration: enzyme concentration giving mainly scIgG: has generated mainly scIgG (arrow 2) at about 0.9 ng/ml (lane 6)
IVIg cleavage, SDS-PAGE titration: fold efficacy over IdeS: This corresponds to a 2 fold increased efficacy compared to IdeS

B6: pCART204 (protein)
chain: MDDYQRNATEAYAKEVPHQITSVWTKGVTPPEQFRYNNEDVIHAPYLAHQGWYDITKAFDGKDNLLCGAATAGNMLHWWFDQNKTEIEAYLSKHPEKQKIIFNNQELFDLKAAIDTKDSQTNSQLFNYFRDKAFPNLSARQLGVMPDLVLDMFINGYYLNVFKTQSTDVNRPYQDKDKRGGIFDAVFTRGDQTTLLTARHDLKNKGLNDISTIIKQELTEGRALALSHTYANVSISHVINLWGADFNAEGNLEAIYVTDSDANASIGMKKYFVGINAHGHVAISAKKIEGENIGAQVLGLFTLSSGKDIWQKLSGGGHHHHHH
IVIg cleavage, SDS-PAGE titration: enzyme concentration giving an intense scIgG band: Concentrations of 0.94 ng/ml (lane 6) for pCART202, pCART203 and pCART204 result in an intense band of scIgG (arrow 2), with most of the IgG single cleaved

B7: pCART144 (IdeZ with N terminal methionine and histidine tag) (protein)
chain: MDDYQRNATEAYAKEVPHQITSVWTKGVTPLTPEQFRYNNEDVIHAPYLAHQGWYDITKAFDGKDNLLCGAATAGNMLHWWFDQNKTEIEAYLSKHPEKQKIIFNNQELFDLKAAIDTKDSQTNSQLFNYFRDKAFPNLSARQLGVMPDLVLDMFINGYYLNVFKTQSTDVNRPYQDKDKRGGIFDAVFTRGDQTTLLTARHDLKNKGLNDISTIIKQELTEGRALALSHTYANVSISHVINLWGADFNAEGNLEAIYVTDSDANASIGMKKYFVGINAHGHVAISAKKIEGENIGAQVLGLFTLSSGKDIWQKLSGGGHHHHHH
IVIg cleavage of the 2nd heavy chain, SDS-PAGE titration: pCART144 (IdeZ) is worse in cleavage of the 2nd heavy chain compared to IdeS (BX1001865 and pCART124)
IVIg cleavage, SDS-PAGE titration: shows more effective cleavage at the 1st IgG heavy chain (lane 6) compared to IdeS (BX1001865 and pCART124)

B8: IdeS BX1001865 (protein)
chain: DSFSANQEIRYSEVTPYHVTSVWTKGVTPPANFTQGEDVFHAPYVANQGWYDITKTFNGKDDLLCGAATAGNMLHWWFDQNKDQIKRYLEEHPEKQKINFNGEQMFDVKEAIDTKNHQLDSKLFEYFKEKAFPYLSTKHLGVFPDHVIDMFINGYRLSLTNHGPTPVKEGSKDPRGGIFDAVFTRGDQSKLLTSRHDFKEKNLKEISDLIKKELTEGKALGLSHTYANVRINHVINLWGADFDSNGNLKAIYVTDSDSNASIGMKKYFVGVNSAGKVAISAKEIKEDNIGAQVLGLFTLSTGQDSWNQTN
Conc. of enzyme for 1st IgG heavy chain cleavage (IgG to scIgG), SDS-PAGE: 1900 ng/mL
Conc. of enzyme for 2nd IgG heavy chain cleavage (scIgG to F(ab')2), SDS-PAGE: 6000 ng/mL and 7500 ng/mL
IVIg cleavage, SDS-PAGE titration: enzyme concentration at which cleavage starts: IdeS, which starts the cleavage at 0.9 ng/ml (lane 6) and has a dominating scIgG band at 1.9 ng/ml (lane 5)
IVIg cleavage, SDS-PAGE titration: enzyme concentration giving a dominating scIgG band: IdeS, which starts the cleavage at 0.9 ng/ml (lane 6) and has a dominating scIgG band at 1.9 ng/ml (lane 5)
IVIg cleavage, SDS-PAGE titration: enzyme concentration giving mainly scIgG: IdeS (BX1001865) has generated mainly scIgG (arrow 2) at a concentration of 1.9 ng/ml (lane 5)
IVIg cleavage, SDS-PAGE titration: share of scIgG at 0.94 ng/ml enzyme: the same concentration of IdeS results in less than 50% scIgG (lane 6)

B9: pCART124 (IdeS with N terminal methionine and histidine tag) (protein)
chain: MDSFSANQEIRYSEVTPYHVTSVWTKGVTPPANFTQGEDVFHAPYVANQGWYDITKTFNGKDDLLCGAATAGNMLHWWFDQNKDQIKRYLEEHPEKQKINFNGEQMFDVKEAIDTKNHQLDSKLFEYFKEKAFPYLSTKHLGVFPDHVIDMFINGYRLSLTNHGPTPVKEGSKDPRGGIFDAVFTRGDQSKLLTSRHDFKEKNLKEISDLIKKELTEGKALGLSHTYANVRINHVINLWGADFDSNGNLKAIYVTDSDSNASIGMKKYFVGVNSAGKVAISAKEIKEDNIGAQVLGLFTLSTGQDSWNQTNGGGHHHHHH
Conc. of enzyme for 1st IgG heavy chain cleavage (IgG to scIgG), SDS-PAGE: 1900 ng/mL
Conc. of enzyme for 2nd IgG heavy chain cleavage (scIgG to F(ab')2), SDS-PAGE: 6000 ng/mL and 7500 ng/mL
IVIg cleavage, SDS-PAGE titration: enzyme concentration at which cleavage starts: IdeS, which starts the cleavage at 0.9 ng/ml (lane 6) and has a dominating scIgG band at 1.9 ng/ml (lane 5)
IVIg cleavage, SDS-PAGE titration: enzyme concentration giving a dominating scIgG band: IdeS, which starts the cleavage at 0.9 ng/ml (lane 6) and has a dominating scIgG band at 1.9 ng/ml (lane 5)
IVIg cleavage, SDS-PAGE titration: share of scIgG at 0.94 ng/ml enzyme: the same concentration of IdeS results in less than 50% scIgG (lane 6)

B10: pCART202 (protein)
chain: MDDYQRNATEAYAKEVPHQITSVWTKGVTPLTPEQFTQGEDVIHAPYLAHQGWYDITKAFDGKDNLLCGAATAGNMLHWWFDQNKTEIEAYLSKHPEKQKIIFNNQELFDLKAAIDTKDSQTNSQLFNYFRDKAFPNLSARQLGVMPDLVLDMFINGYYLNVFKTQSTDVNRPYQDKDKRGGIFDAVFTRGDQTTLLTARHDLKNKGLNDISTIIKQELTEGRALALSHTYANVSISHVINLWGADFNAEGNLEAIYVTDSDANASIGMKKYFVGINAHGHVAISAKKIEGENIGAQVLGLFTLSSGKDIWQKLSGGGHHHHHH
IVIg cleavage, SDS-PAGE titration: enzyme concentration giving an intense scIgG band: Concentrations of 0.94 ng/ml (lane 6) for pCART202, pCART203 and pCART204 result in an intense band of scIgG (arrow 2), with most of the IgG single cleaved
